Measurements taken from patent US20240101708A1 (Genentech, published 2024).

T1: recombinant human RNF43 extracellular domain (human, UniProt Q68DV7 24-197)
T1 construct: extracellular domain; also called huRNF43; human RNF43 ECD
T1 sequence (looked up): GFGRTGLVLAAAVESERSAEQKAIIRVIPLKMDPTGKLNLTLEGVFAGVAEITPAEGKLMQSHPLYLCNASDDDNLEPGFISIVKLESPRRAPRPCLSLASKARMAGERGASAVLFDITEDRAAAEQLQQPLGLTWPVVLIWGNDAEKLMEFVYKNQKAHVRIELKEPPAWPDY


Biological target: T1, recombinant human RNF43 extracellular …
Assay: SPR Biacore 8K; antibody captured on Protein A; RNF43 ECD analyte; 25 C
Experimental: Antibodies were screened for binding to recombinant human RNF43 and ZNRF3 ECDs using a Biacore® 8 k instrument (GE Life Sciences). Briefly, antibodies diluted to 1 μg/ml in 1×HBSP buffer (Cytiva, BR100368) were captured on a Sensor Chip Protein A (GE Life Sciences) using a flow rate of 10 μl/minute and a contact time of 60 seconds. Binding of recombinant human RNF43 and ZNRF3 extracellular domain to the captured antibodies was analyzed at 25° C. using a single cycle kinetics method with a flow rate of 30 μl/minute, a contact time of 180 seconds and a dissociation time of 600 seconds. The concentration of recombinant human RNF43 and ZNRF3 extracellular domain in the single cycle kinetics were 0, 0.8, 4, 20, and 100 nM. Between cycles, the chip was regenerated using 10 mM Glycine HCl pH 1.5 injected for 30 seconds at 30 μl/minute. Data were evaluated using Biacore 8K Evaluation software (GE Life Sciences). Kinetic constants were obtained using a 1:1 binding model with the parameter RI set to zero. Cell surface ligase antibodies with sub-nanomolar affinities may provide advantages in certain instances, for example, in the degradation efficiency which is correlated with the durability of the ternary complex as shown in FIG. 5D.

| Binder | Kd [nM] |
| --- | --- |
| RNF43-5 (antibody, V domains shown, Rabbit clone; VH/VL only) VH: QSVEESGGRLVTPGTPLTLTCTVSGFSLNTYAMGWVRQAPGKGLEWIGTIGSSGSTYYATWAKGRFTVSKTSTTVDLKITSPTTEDTATYFCVRGADGLNYYPIWGPGTLVTVSL VL: AQVLTQTPSSVSAAVGGTVTINCQASQSVYNNKNLAWYQQKPGQPPKLLIYDASDLASGVSSRFKGSGSGTQFTLTISGVQCDDAATYYCQGEFNCDKGDCNAFGGGTEVVVK | 1.1 |
| RNF43-106 (antibody, V domains shown, Rat clone; VH/VL only) VH: QIQLGQSGPELTKPGESVKISCKASGYTFSDYPIHWVKQAPGKGLKWMGWINTYTGKPTFADDFKGRFVFSLEASASTANLQISNLKNEDTATYFCALGPISTVFYAMDAWGQGTSVTVSS VL: DIQMTQSPSFLSASVGDRVTINCKASQNINKYLNWYQQKLGEAPKRLIYNTNNLQTGIPSRFSGSGSGTDYTLTISSLQPEDFATYFCLQHNSFPYTFGAGTKLELK | 15.6 |
| RNF43-210 (antibody, V domains shown, Rat clone; VH/VL only) VH: QIQLVQSGPELKKPEESVKISCKASGYIFTDYLIHWVKQAPGEGLKWMGWINTYTGKPTYADDFKGRFVFSLEASASTAILQISNLKNEDTATYFCALGPITTVVYVMDAWGQGTSVTVSS VL: DIQMTQSPSFLSASVGDRVTINCKASQNINKYLNWYQQKLGEAPKRLIYNTNNLQTDIPSRFSGSGSGADYTLTINSLQPEDFATYFCLQHNSFPYTFGAGTKLELK | 13.4 |
| RNF43-123 (antibody, V domains shown, Rat clone; VH/VL only) VH: QIQLVQSGPELKKPGESVKISCKASGYTFTDYPMHWVKQAPGKGLKWMGWINTYTGKPTYADDFKGRFVFSLEASANTANLQISNLKNDDTATYFCALGPISTVFYAVDAWGQGTSVTVSS VL: DIQMTQSPSFLSASVGDRVTINCKASQNINKYLNWYQQKVGEAPKRLMYNTNNLQTGIPSRFSGSGSGTDYTLTISSLQPEDFATYFCLQHNSFPYTFGPGTELELK | 13.4 |
| RNF43-11 (antibody, V domains shown, Rabbit clone; VH/VL only) VH: QEQLVESGGGLVQPEGSLTLTCKASGFDFSSNVMCWVRQAPGKGLEWIGCIYTGSSGSTYYASWAKGRFTITRSTSLNTVTLQMTSLTAADTATYFCARYVSGGEYYNLWGPGTLVTVSS VL: ALVMTQTPASVEAAVGGTVTINCQASESISNWLAWYQQKPGQPPKLLIYKASTLASGVSSRFKGSGSGTQFTLTISDLECADAATYYCQQGSSWINIEDVFGGGTEVVVK | 27.7 |
| RNF43-13 (antibody, V domains shown, Rabbit clone; VH/VL only) VH: QSLEESGGGLVKPGGTLTLTCKASGIDFSGYYYMCWVRQAPGKGLEWIACIYTTSGSAWYASWAKGRFTISITTSLNTVTLQMTSLTATDTATYFCVRYANYGGYNYPEFGVLWGPGTLVTVSS VL: AYDMTQTPASVEVAVGATVTIKCQASEDIYNLLAWYQQKPGQPPKLLIYRASKLASGVPSRFSGSGSGTEFTLTISSVQCDDAATYYCQQGYSISNVENPFGGGTEVVVK | 99.6 |
| RNF43-21 (antibody, V domains shown, Rabbit clone; VH/VL only) VH: QSLEESGGDLVKPGASLTLTCTASGFSFSSSYYMCWVRQAPGKGLEWIACIYAGSSGSTYYASWAKGRFTVSKTSSTTVTLQMTSLTAADTATYFCARYTYGSGSDSYFNLWGPGTLVTVSS VL: AYDMTQTPASVEAAVGGTVTIQCQASQSIGSYLAWYQQKPGQPPKLLIYRASTLSSGVPSRFKGSGSGTQFTLTISDLECADAATYYCQQGYSITNLDNGFGGGTEVVVK | 10.3 |
| RNF43-15 (antibody, V domains shown, Rabbit clone; VH/VL only) VH: QEQLEESGGDLVKPGASLTLTCTASRFSFSNDDVICWVRQAPGKGLEWIGCIATINGNTAYATWAKGRFTSSKTSSTTVTLQMTRLTAADTATYFCARWDTGSEHVTLWGPGTLVTVSS VL: AYDMTQTPASVEVAVGGTVTIKCQASQSISSYLAWYQQKPGQPPKPLIYEASKLASGVPSRFSGSGSGTQFTLTISGVQCADAATYYCQQGASWSNVDNVFGGGTEVVVK | 8 |
| RNF43-17 (antibody, V domains shown, Rabbit clone; VH/VL only) V domain 1: QSVEESGGRLVTPGTPLTLTCTGSGFSLSNYAMGWVRQAPGKGLEYIGIIYASGSTWYASWAKGRFTISKTSTTVDLKITSPATEDTATYFCCRDATTTYDRLDLWGQGTLITVSS V domain 2: AFELTQTPSSVEAAVGGTVTIKCQASQSISKWLAWYQQKPGQPPKLLIYRASTLPSGVPSRFKGSGSGTEFTLTISGVECADAATYYCQQGYSVTNLDEAFGGGTEVVVK | 6.7 |
| RNF43-14 (antibody, V domains shown, Rabbit clone; VH/VL only) VH: QSVEESGGRLVTPGTPLTLTCTVSGIDLSSYAMGWVRQAPGKGLEYIGFIYASGSTYYASWAKGRFTISKTSTTVDLKITSPTTEDTATYFCARDSSETINYFNIWGPGTLVTVSL VL: NIVMTQTPSPVSGAVGGTVTIKCQASQSISNWLAWYQQKPGQPPKVLIYRASTLASGVSSRFKGSGSGTEFTLTISDLECADAATYYCQQGYYISYLDNAFGGGTEVVVK | 0.8 |
| RNF43-33 (antibody, V domains shown, Rat clone; VH/VL only) VH: QEQLKESGPGLVQPSQTLSLTCTVSGFSLTSYNVHWVRQPPRKGLEWMGRMRYNGDTSYNSALKSRLSISRDTSKNQVFLKMNSLQTDDTGTYYCARGPLWDYWGQGVMVTVSS VL: DVVLTQTPPTLSATIGQSVSVSCRSSQSLLHSNGNTYLNWLLQRPGQPPQLLIYLVSRLESGVPNRFSGSGSGTDFTLKISGVEAEDLGVYYCVQSTHAPYTFGAGTKLELK | 63 |
| RNF43-23 (antibody, V domains shown, Rabbit clone; VH/VL only) VH: QEQVVESGGGLVQPEGSLTLTCKGSGFDFSGNVLCWVRQAPGKGLEWIGCIATGIGSTAYASWAKGRFTITRGTSLNTVDLKMTSLTAADTATYFCARYVSGSEYYNFWGPGTLVTVSS VL: AYDMTQTPASVEVAVGGTVTIKCQASQSISSFLAWYQQKPGQPPMLLIYKASTLASGVPSRFKGSGSGTQFTLTISGVECADAATYYCQQGYSWNGVDNTFGGGTEVVVK | 85 |
| RNF43-9 (antibody, V domains shown, Rabbit clone; VH/VL only) VH: QSLEESGGDLVQPEGSLTLTCTASGFSFSSSCYMCWVRQAPGKGLEWIACINTGSSGSTYYASWAKGRFTISKTSSTTVTLQMTILTAADTATYFCARGYAGYTGYGQFNLWGPGTLVTVSS VL: QIVMTQTPASVEAAVGGTVTIKCQASQSISNYLAWYQQKPGQRPKLLIYDASKLASGVPSRFKGSGSGTQFTLTISGVECADAATYYCQQGYTMNNVDNAFGGGTEVVVK | 1.8 |
| RNF43-22 (antibody, V domains shown, Rabbit clone; VH/VL only) VH: QEQLEESGGDLVKPGASLTLTCTASGFSVSNSYYMCWVRQAPGKGLEWIACINTGSSGSTYYASWAKGRFTISKTSSTTVTLQMTTLTAADTATYFCARGYAGYAGYGQFNLWGPGTLVTVSS VL: AYDMTQTPASVEVAVGGTVTIKCQASQSISSYLAWYQQKPGQRPKVLIYDVSKLASGVPSRFKGSGSGTQFTLTISGVECADAATYYCQQGYSMSNVDNTFGGGTEVVVK | 0.5 |
| RNF43-6 (antibody, V domains shown, Rabbit clone; VH/VL only) VH: QSLEESGGRLVTPGTPLTLTCTVSGFSLSAFGMNWVRQAPGKGLEWIGYISAGGSAVYPNWAEGRFTISKASTTVTLKMTSLTTEDTATYFCVRGGYVGSTNSLWGPGTLVTVSS VL: AAVLTQTPSPVSAAVGGTVSISCQSSKSVHNNNWLAWYQQKPGQPPKLLIYGASTLASGVPSRFKGSGSGTQFTLTISDVQCDDAATYYCSGGYSSIIDNGFGGGTDVVVE | 10.3 |
| RNF43-69 (antibody, V domains shown, Rat clone; VH/VL only) VH: EVQLVESGGGLVQPGRSLKLSCAASGFTFSDYYMAWVRQAPKKGLEWVASITYEGSSTYYGDSVKGRFTISRDNAKSTLYLQMNSLRSEDTATFYCARHLDYGYDYAWYFDFWGPGTMVTVSS VL: DIVLTQSPTTLSVTPGETVSLSCRTSHSIGTNLHWYQQKTNESPRLLIKYASQSISGIPSRFSASGSGTDFTLNINNVEFDDVSSYFCQQTQSWPLTFGSGTKLEIK | 16.8 |
| RNF43-75 (antibody, V domains shown, Rat clone; VH/VL only) VH: EVQLVESGGGLVQPGRSLKLSCAASGFTFSDHYMAWVRQAPKKGLEWVASITYEGSSTYYGDSVKGRFTISRDNAKSTLYLQMNSLRSEDTATFYCARHLDYGYDYAWSFDFWGPGTMVTVSS VL: DIVLTQSPIILSVTPGETVSLSCRTSHSIGTNLHWYQQKTNESPRLLINYASQSISGIPSRFSASGSGTDFTLNINNVEFEDVASYYCQQTQRWPLTFGSGTKLEIK | 4.65 |
| RNF43-35 (antibody, V domains shown, Rat clone; VH/VL only) VH: QVQLKESGPGLVQPSQTLSLTCTVSGFSLTTYSVHWVRQHSGKNLEWMGRMWTAGDTSYNSAFTSRLNIFRDTSKSQVFLKMNSLQTEDTGTYYCARSSYTSGYPFDSWGQGVMVTVSS VL: DTVLTQSPALAVSPGERVTISCRASESVSKLMHWYQQRPGQQPQLLIYLTSHLASGVPARFSGSGSGTDFTLTIDPVEADDTATYYCQQSRNDPTFGAGTKLELK | 0.07 |
| RNF43-90 (antibody, V domains shown, Rat clone; VH/VL only) VH: QVQLKESGPGLVQPSQTLSLTCTVSGFSLTSYSVHWVRQHSGNRLEWMGRMWSAGDTSFNSAFTSRLNITRDTSKSQVFLKMNSLQTEDTGTYYCVRSFYNAGYPFDYWGQGVMVTVSS VL: DTVLTQSPALAVSPGERVTISCRASDSVIKLMNWYQQKPGQRPKLLIYLASHLASGVPARFSGSGSGTDFTLTIDPVETDDTATYYCQQSRNDPTFGPGTKLELK | 0.29 |
